{"source": "paper PMC10579561", "about": "“Real flue gas CO2 hydrogenation to formate by an enzymatic reactor using O2- and CO-tolerant hydrogenase and formate dehydrogenase” (Frontiers in Bioengineering and Biotechnology, 2023)", "substrate": "NC(=O)C1=CN([C@@H]2O[C@H](COP(=O)(O)OP(=O)(O)OC[C@H]3O[C@@H](n4cnc5c(N)ncnc54)[C@H](O)[C@@H]3O)[C@@H](O)[C@H]2O)C=CC1", "assay": "purified protein", "format": "biochemical, Methylorubrum extorquens", "settings": "100 mM sodium bicarbonate, N2-purged 200 mM Kpi pH 6.5 (no O2 or CO), NADH varied 6.25-100 µM, table header prints NAD+, free enzyme"}
{"protein": "MeFDH1 (Methylorubrum extorquens AM1) (protein, with Tungsten-containing formate dehydrogenase alpha subunit) MSEASGTVRSFAHPGRGRNVARAVPKGRQVDPHAKVEIEELLGTRPRQRDLLIEHLHLIQDTYGQISADHLAALADEMSLAFAEVFETATFYAHFDVVKEGEADIPRLTIRVCDSITCAMFGADELLETLQRELASDAVRVVRAPCVGLCDHAPAVEVGHNFLHRADLASVRAAVEAEDTHAHIPTYVDYDAYRAGGGYATLERLRSGELPVDDVLKVLDDGGLRGLGGAGFPTGRKWRSVRGEPGPRLMAVNGDEGEPGTFKDQLYLNTDPHRFLEGMLIGAHVVEAADVYIYLRDEYPISREILAREIAKLPEGGTRIHLRRGAGAYICGEESSLIESLEGKRGLPRHKPPFPFQVGLFNRPTLINNIETLFWVRDLIERGAEWWKSHGRNGRVGLRSYSVSGRVKEPGVKLAPAGLTIQELIDEYCGGISDGHSFAAYLPGGASGGILPASMNDIPLDFGTLEKYGCFIGSAAVVILSDQDDVRGAALNLMKFFEDESCGQCTPCRSGTQKARMLMENGVWDTDLLGELAQCMRDASICGLGQAASNPVSTVIKYFPDLFPEPRAVAAE", "values": [{"measurement": "Km", "result": "26.38 ± 1.16", "unit": "µM"}, {"measurement": "kcat", "result": "2.27 ± 0.064", "unit": "s⁻¹"}, {"measurement": "kcat/Km", "result": "86200 ± 3000", "unit": "M⁻¹ s⁻¹"}]}
